The values below come from patent US20050069530A1.

This test has as its target human type IIA sPLA2 (human) (UniProt P14555). The test is described as follows: cell-based or functional assay.

Chain of human type IIA sPLA2 (human) (P14555 21-144): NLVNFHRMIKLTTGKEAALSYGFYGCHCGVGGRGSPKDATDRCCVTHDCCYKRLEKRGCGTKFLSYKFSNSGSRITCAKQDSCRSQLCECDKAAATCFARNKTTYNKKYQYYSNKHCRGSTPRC

Turning to D65E-PIP (59-67) (peptide), the IC50 of sPLA2 enzyme inhibition (3H-labelled E. coli membranes as substrate) came to 4.95 µM.

As to D65A-PIP (59-67) (peptide), the IC50 of sPLA2 enzyme inhibition (3H-labelled E. coli membranes as substrate) is 5.45 µM.

Turning to D65S-PIP (59-67) (peptide), the IC50 of sPLA2 enzyme inhibition (3H-labelled E. coli membranes as substrate) turned out to be 5.25 µM.

As for PIP (59-67) dimer (peptide), the IC50 of sPLA2 enzyme inhibition (3H-labelled E. coli membranes as substrate) was found to be 1.19 µM and the Mean % Inhibition at fixed peptide concentration [5 µM] was 74.5%.
